In patent publication US20160235871A1, “Spect Radionuclide-labeled Trimeric Cycle RGD Peptide, Preparation Method Thereof and Imaging Method Thereof” (Bailing Cloud Biomedical Technologies Innovation, priority 2015, published 2016):
Like-named read-outs stand apart in the source and are kept apart here.

Tests used:
[1] = normal mice, research period over 2 hours
Description: X. Normal mice (n=2) are selected for the metabolism research of the stability of ^99mmTc-4P-RGD3 in vivo, Each animal is injected with about 10 MBq of ^99mTc-4P-RGD3. The bladders are squeezed manually after 30 minutes and 120 minutes, respectively. The urine samples are collected and are mixed with 50% aqueous acetonitrile with the same volume. The mixture is centrifilged under 8,000 rpm. The supernatant is collected and is filtered by a 0.20 μm Millex-LG filter. The filtrate is analyzed by the HPLC. The fecal samples 120 minutes after the injection is collected, and is treated for homogenization by 20% of aqueous acetonitrile. The obtained mixture is rotated for about 5 minutes and then is centrifuged under 8,000 rpm. The supernatant is collected and is filtered by a 0.20 μm. Millex-LG filter. The filtrate is analyzed by the HPLC.

U87MG glioma [2] = assay: Biodistribution in U87MG glioma nude mice; format: in vivo
Description: (§1) U87MG cells are purchased from US ATCC (Manassas, Va.). Cell culture conditions: […] […] 7 random U87MG glioma nude mice (20-25 g) are selected. […] After 60 minutes, a great amount of sodium pentobarbital is injected for executing the mice. Blood samples are collected from the mouse hearts. Tumor, normal organs (brain, eyes, heart, spleen, lung, liver, kidney, muscle and intestine) and tumor tissues are collected and washed by saline. Then they are dried by absorbent tissue, weighed by Perkin Elmer Wizard 1480 γ counter (Shelton, Conn.). The organ intake is measured by the percentage of the injection dose per gram of the tissue (% ID/g).

[3] = Biodistribution in U87MG glioma nude mice; format: in vivo; conditions: female, athymic nu/nu nude, mouse, in vivo, iv, 3 uCi, total radioactivity
Description: as §1

U87MG glioma [4] = conditions: SPECT/CT
Description: The preparation of ^99mTc-4P-RGD3 for the research of biodistribution includes incorporating ^99mTc-4P-RGD3 solution into physiological saline until the activity concentration is 10-30 mCi/mL. The preparation of ^99mTc-4P-RGD3 for tumor imaging includes incorporating ^99mTc-4P-RGD3 solution into physiological saline until the activity concentration is about 10 mCi/mL. During the experiments, each of the animal is injected with about 0.1 mL of the solution.
Biodistribution and tumor imaging are performed under the guidance of US National Institutes of Health animal experiments (1985, NIH 86-23, Laboratory Animal Care). U87MG cells are purchased from US ATCC (Manassas, Va.). Cell culture conditions: DMEM medium (non-essential amino acids sodium pyruvate) containing 10% of fetal bovine serum and 1% of penicillin and streptomycin. The cells are cultured under 37° C. with 5% of CO2. When the cells are grown to 90% confluence, they grow exponentially. The cells can be grown to a single layer, multiple layers or split layers. Female athymic nu/nu nude mice aged 4-5 weeks are used for the experiments, 5×10^6 of tumor cells are incorporated into 0.1 mL of physiological saline and are planted to shoulder subcutaneous of the mice under sterile conditions. About 4 weeks after planting, the tumor cells grow to 0.1-0.5 g for the use of biodistribution and imaging.

Row | SMILES | Tumor intake (U87MG glioma [2]; mouse, in vivo) [% ID/g] | tissue uptake at 1 h ([3]; Organ intake, Blood) [%ID/g] | tissue uptake at 1 h ([3]; Organ intake, Brain) [%ID/g] | tissue uptake at 1 h ([3]; Organ intake, Eye) [%ID/g] | tissue uptake at 1 h ([3]; Organ intake, Heart) [%ID/g] | tissue uptake at 1 h ([3]; Organ intake, Kidney) [%ID/g] | tissue uptake at 1 h ([3]; Organ intake, Liver) [%ID/g] | tissue uptake at 1 h ([3]; Organ intake, Lung) [%ID/g] | tissue uptake at 1 h ([3]; Organ intake, Muscle) [%ID/g] | tissue uptake at 1 h ([3]; Organ intake, Spleen) [%ID/g] | tissue uptake at 1 h ([3]; Tumor intake) [%ID/g] | also measured
1 | N=C(N)NCCC[C@@H]1NC(=O)[C@H](CCCCNC(=O)CCOCCOCCOCCOCCNC(=O)CCC(CCC(=O)NCCOCCOCCOCCOCCC(=O)NCCCC[C@@H]2NC(=O)[C@@H](Cc3ccccc3)NC(=O)[C@H](CC(=O)O)NC(=O)CNC(=O)[C@H](CCCNC(=N)N)NC2=O)(CCC(=O)NCCOCCOCCOCCOCCC(=O)NCCCC[C@@H]2NC(=O)[C@@H](Cc3ccccc3)NC(=O)[C@H](CC(=O)O)NC(=O)CNC(=O)[C@H](CCCNC(=N)N)NC2=O)NC(=O)CCOCCOCCOCCOCCNC(=O)c2ccc(NN)nc2)NC(=O)[C@@H](Cc2ccccc2)NC(=O)[C@H](CC(=O)O)NC(=O)CNC1=O (stereo partly drawn) [^99mTc-4P-RGD3, metal not drawn] |  |  |  |  |  |  |  |  |  |  |  | Metabolites detected in the urine samples and the fecal samples (radio-HPLC) [1]: no metabolites; Intake background in organs of the whole body (intestine, liver, lung, muscle, spleen, kidney) (U87MG glioma [2]; 60 minutes after injection, compared with ^99mTc-3P-RGD2 and ^99mTc-Galacto-RGD2): significantly decreased; Tumor intake (U87MG glioma [2]; U87MG glioma nude mice, 60 minutes after tail vein injection): 7.34±1.66 % ID/g; tissue uptake at 1 h ([3]; U87MG glioma nude mice, 60 minutes after tail vein injection, read-out: Organ intake, Blood): 0.53 ± 0.14 %ID/g; tissue uptake at 1 h ([3]; U87MG glioma nude mice, 60 minutes after tail vein injection, read-out: Organ intake, Brain): 0.14 ± 0.01 %ID/g; tissue uptake at 1 h ([3]; U87MG glioma nude mice, 60 minutes after tail vein injection, read-out: Organ intake, Eye): 0.46 ± 0.23 %ID/g; tissue uptake at 1 h ([3]; U87MG glioma nude mice, 60 minutes after tail vein injection, read-out: Organ intake, Heart): 0.56 ± 0.19 %ID/g; tissue uptake at 1 h ([3]; U87MG glioma nude mice, 60 minutes after tail vein injection, read-out: Organ intake, Kidney): 9.1 ± 2.31 %ID/g; tissue uptake at 1 h ([3]; U87MG glioma nude mice, 60 minutes after tail vein injection, read-out: Organ intake, Liver): 1.92 ± 0.62 %ID/g; tissue uptake at 1 h ([3]; U87MG glioma nude mice, 60 minutes after tail vein injection, read-out: Organ intake, Lung): 1.14 ± 0.41 %ID/g; tissue uptake at 1 h ([3]; U87MG glioma nude mice, 60 minutes after tail vein injection, read-out: Organ intake, Muscle): 0.35 ± 0.17 %ID/g; tissue uptake at 1 h ([3]; U87MG glioma nude mice, 60 minutes after tail vein injection, read-out: Organ intake, Small Intestine): 1.65 ± 0.37 %ID/g; tissue uptake at 1 h ([3]; U87MG glioma nude mice, 60 minutes after tail vein injection, read-out: Organ intake, Spleen): 1.33 ± 0.52 %ID/g; tissue uptake at 1 h ([3]; U87MG glioma nude mice, 60 minutes after tail vein injection, read-out: Tumor intake): 7.34 ± 1.66 %ID/g; Radioactive accumulation in animal abdomen (especially in intestines) (U87MG glioma [4]; compared with ^99mTc-3P-RGD2 and ^99mTc-Galacto-RGD2): the lowest; Tumor intake based on the SPECT quantization (U87MG glioma [4]; glioma nude mice, about 37 MBq injected): about 7.34 ID/g
2 | N=C(N)NCCC[C@@H]1NC(=O)[C@H](CCCCNC(=O)CCOCCOCCOCCOCCNC(=O)CC[C@H](NC(=O)CCOCCOCCOCCOCCNC(=O)c2ccc(NN)nc2)C(=O)NCCOCCOCCOCCOCCC(=O)NCCCC[C@@H]2NC(=O)[C@@H](Cc3ccccc3)NC(=O)[C@H](CC(=O)O)NC(=O)CNC(=O)[C@H](CCCNC(=N)N)NC2=O)NC(=O)[C@@H](Cc2ccccc2)NC(=O)[C@H](CC(=O)O)NC(=O)CNC1=O [^99mTc-3P-RGD2, metal not drawn] | 7.24±0.95 | 0.47 ± 0.06 | 0.17 ± 0.03 | 1.4 ± 0.13 | 1.67 ± 0.15 | 12.3 ± 1.09 | 2.92 ± 0.77 | 4.25 ± 0.63 | 1.12 ± 0.15 | 3.11 ± 0.18 | 7.24 ± 0.95 | 
3 | N=C(N)NCCC[C@@H]1NC(=O)[C@H](CCCCNC(=O)[C@H]2O[C@@H](CNC(=O)COCCOCCn3cc(CNC(=O)CC[C@H](NC(=O)c4ccc(NN)nc4)C(=O)NCc4cn(CCOCCOCC(=O)NC[C@@H]5O[C@H](C(=O)NCCCC[C@@H]6NC(=O)[C@@H](Cc7ccccc7)NC(=O)[C@H](CC(=O)O)NC(=O)CNC(=O)[C@H](CCCNC(=N)N)NC6=O)[C@H](O)[C@H](O)[C@H]5O)nn4)nn3)[C@H](O)[C@@H](O)[C@H]2O)NC(=O)[C@@H](Cc2ccccc2)NC(=O)[C@H](CC(=O)O)NC(=O)CNC1=O [^99mTc-Galacto-RGD2, metal not drawn] | 6.86±1.33 | 0.56 ± 0.25 | 0.35 ± 0.28 | 0.81 ± 0.39 | 1.27 ± 0.61 | 11.7 ± 4.06 | 3.07 ± 2.14 | 2.93 ± 0.94 | 0.88 ± 0.34 | 1.99 ± 0.71 | 6.86 ± 1.33 | tissue uptake at 1 h ([3]; Organ intake, Small Intestine): 5.45 ± 1.47 %ID/g
